Reference: US20210269525A1 (BIOCYTOGEN PHARMACEUTICALS BEIJING, published 2021)
Where two headings read alike, the source gives them in different places.

B1: 10A4-H2K3-IgG1-LALA (antibody, V domains shown)
VH: QVQLVQSGAEVKKPGASVKISCKASGYTFTSYYIHWVRQAPGQRLEFIGWIYPGNVNAKYNEKFKGRATITTDKSASTAYMELSSLRSEDTAVYYCAIKGGNYDWGQGTLVTVSS
VL: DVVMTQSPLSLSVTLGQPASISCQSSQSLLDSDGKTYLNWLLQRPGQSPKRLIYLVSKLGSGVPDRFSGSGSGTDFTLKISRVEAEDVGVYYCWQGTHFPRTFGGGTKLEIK
notes: Humanized; human IgG1 with LALA mutations; also called H2K3 (humanized 10A4)
B2: 10A4-H1K2-IgG1-LALA (antibody, V domains shown)
VH: QVQLVQSGAEVKKPGASVKVSCKASGYTFTSYYIHWVRQAPGQRLEFIGWIYPGNVNAKYNEKFKGRVTITTDKSASTAYMELSSLRSEDTAVYYCAIKGGNYDWGQGTLVTVSS
VL: DVVMTQSPLSLPVTLGQPASISCQSSQSLLDSDGKTYLNWLQQRPGQSPRRLIYLVSKLGSGVPDRFSGSGSGTDFTLKISRVEAEDVGVYYCWQGTHFPRTFGGGTKLEIK
notes: Humanized; human IgG1 with LALA mutations; also called H1K2 (humanized 10A4)
B3: 1B1-H3K1-IgG1-LALA (antibody, V domains shown)
VH: QVQLVQSGAEVKKPGASVKLSCKASGYTFTSYWMHWVRQRHGQGLEWIGNIYPDSGTTNYGEKFKTRVTLTVDTSTSTAYMELSSLRSEDTAVYYCTRDTSGQYYFDYWGQGTLVTVSS
VL: DIVMTQSPDSLAVSAGERATMNCKSSQSLLNSRTRKNYLAWYQHKPGQSPKLLIYWASTRESGVPDRFSGSGSGTDFTLTISSLQAEDVAVYYCVQSFSLRAFGGGTKVEIK
notes: Humanized; human IgG1 with LALA mutations; also called H3K1 (humanized 1B1)
B4: 1B1-H3K2-IgG1-LALA (antibody, V domains shown)
VH: QVQLVQSGAEVKKPGASVKLSCKASGYTFTSYWMHWVRQRHGQGLEWIGNIYPDSGTTNYGEKFKTRVTLTVDTSTSTAYMELSSLRSEDTAVYYCTRDTSGQYYFDYWGQGTLVTVSS
VL: DIVMTQSPDSLAVSAGERVTMNCKSSQSLLNSRTRKNYLAWYQHKPGQSPKLLIYWASTRESGVPDRFSGSGSGTDFTLTISSLQAEDVAVYYCVQSFSLRAFGGGTKVEIK
notes: Humanized; human IgG1 with LALA mutations; also called H3K2 (humanized 1B1)
B5: 1B1-H4K1-IgG1-LALA (antibody, V domains shown)
VH: QVQLVQSGAEVVKPGASVKLSCKASGYTFTSYWMHWVRQRHGQGLEWIGNIYPDSGTTNYGEKFKTRGTLTVDTSTSTAYMELSSLRSEDTAVYYCTRDTSGQYYFDYWGQGTLVTVSS
VL: DIVMTQSPDSLAVSAGERATMNCKSSQSLLNSRTRKNYLAWYQHKPGQSPKLLIYWASTRESGVPDRFSGSGSGTDFTLTISSLQAEDVAVYYCVQSFSLRAFGGGTKVEIK
notes: Humanized; human IgG1 with LALA mutations; also called H4K1 (humanized 1B1)

What was measured:
[1] = biological target: T1, human CD3e (T-cell surface glycoprotein CD3 epsilon chain) (human, UniProt P07766 23-207); assay: cell-based or functional assay
[2] = biological target: T2, Histidine-tagged human CD3e protein (human, UniProt P07766 23-126); assay: SPR (Biacore), human CD3e
T2 construct: also called hCD3e-His; not shown: His tag

[3] = biological target: T3, Cynomolgus CD3 epsilon Protein, His Tag (Acrobiosystems, Cat #CDE-05226) (cynomolgus (Macaca fascicularis), UniProt Q95LI5 22-117); assay: SPR (Biacore), cynomolgus CD3e His tag
T3 construct: also called monkey CD3e; not shown: His tag
T3 sequence: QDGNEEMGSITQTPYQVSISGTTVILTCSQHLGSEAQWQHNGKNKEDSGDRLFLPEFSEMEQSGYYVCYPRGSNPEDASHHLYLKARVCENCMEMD
Method: The binding affinity of the anti-hCD3e antibodies with monkey CD3e (Cynomolgus CD3 epsilon Protein (SEQ ID NO: 39 AA Gln 22-Asp 117), His Tag, Acrobiosystems, Cat #CDE-05226) were also measured using surface plasmon resonance (SPR) using Biacore (Biacore, INC, Piscataway N.J.) by the methods as described in the examples.

[4] = biological target: T1, human CD3e (T-cell surface glycoprotein …); assay: flow cytometry, human PBMC, antibody 1 ug/mL, anti-human IgG Fc-Alexa Fluor647 (1:500), anti-hTcRβ-PerCP (1:30)
Method: (§1) PBMC cells were collected from a human subject. After being thawed, the cells were cultured for 3-4 hours. The medium was then discarded, and the cells were resuspended in phosphate-buffered saline (PBS). The cell concentration was then adjusted to 2×10⁶/25 μl PBS.
(§2) A 96-well plate was prepared. 25 ul of cell suspension was added to each well. […] The cells and the antibodies were incubated. After centrifuge, the residues were discarded. The samples were washed again. 25 ul of PBS was then added to each well to resuspend cells.
(§3) Anti-human IgG Fc-Alexa Fluror647 (1:500) and anit-hTcRβ PerCP (1:30) were then added to each well. The cells and the antibodies were incubated and then the cells were washed again by PBS. 300 ul of PBS was then added to each well to resuspend the cells. FACS was performed.

[5] = biological target: T1, human CD3e (T-cell surface glycoprotein …); assay: flow cytometry, human PBMC, antibody 0.1 ug/mL, anti-human IgG Fc-Alexa Fluor647 (1:500), anti-hTcRβ-PerCP (1:30)
Method: as §1, §2, §3

[6] = biological target: T1, human CD3e (T-cell surface glycoprotein …); assay: flow cytometry, human PBMC, antibody 0.01 ug/mL, anti-human IgG Fc-Alexa Fluor647 (1:500), anti-hTcRβ-PerCP (1:30)
Method: as §1, §2, §3

[7] = biological target: T4, monkey CD3e (Macaca fascicularis) on PBMC (Macaca fascicularis, UniProt Q95LI5 22-198); assay: flow cytometry, Macaca fascicularis PBMC, antibody concentration not given, anti-human IgG Fc-Alexa Fluor647 (1:500), anti-hTcRβ-PerCP (1:30)
T4 construct: Target on PBMC from Macaca fascicularis; also called mfCD3e; monkey PBMC
Method: A 96-well plate was prepared. 25 ul of cell suspension was added to each well. Anti-hCD3 antibodies were added to the 96-well plate. The cells and the antibodies were incubated for 15 minutes at 4° C. 185 ul PBS was then added to each well. After centrifuge at 2000 rpm for 5 minutes, the medium was discarded. The samples were washed again. 25 ul of PBS was then added to resuspend cells.
Anti-human IgG Fc-Alexa Fluror647 (1:500) and anti-hTcRβ PerCP (1:30) were then added to each well. The cells and the antibodies were incubated for 15 minutes at 4° C. 185 ul PBS was then added to each well. After centrifuge, the residues were discarded. The samples were washed again. 25 ul of PBS was then added to resuspend cells. […] In contrast, anti-hTcRβ PerCP cannot bind to monkey PBMC.

[8] = biological target: T1, human CD3e (T-cell surface glycoprotein …); assay: cell-based or functional assay; remark: listed apart in the source
[9] = biological target: T2, Histidine-tagged human CD3e protein; assay: SPR (Biacore), human CD3e; remark: listed apart in the source
[10] = biological target: T1, human CD3e (T-cell surface glycoprotein …); assay: flow cytometry, human PBMC, antibody 1 µg/mL, anti-human IgG Fc-Alexa Fluor647 (1:500), anti-hTcRβ-PerCP (1:30)
Method: as §1, §2, §3

[11] = biological target: T1, human CD3e (T-cell surface glycoprotein …); assay: flow cytometry, human PBMC, antibody 10 µg/mL, anti-human IgG Fc-Alexa Fluor647 (1:500), anti-hTcRβ-PerCP (1:30)
Method: as §1
A 96-well plate was prepared. 25 ul of cell suspension was added to each well. Anti-hCD3e antibodies with different combinations of humanized 1B1 heavy chain variants and humanized 1B1 light chain variants were diluted to 20 ug/ml (2×) in PBS, and were added to the 96-well plate. The cells and the antibodies were incubated. After centrifuge, the residues were discarded. The samples were washed again. 25 ul of PBS was then added to each well to resuspend cells.
as §3

[12] = biological target: T1, human CD3e (T-cell surface glycoprotein …); assay: flow cytometry, human PBMC, antibody 0.1 µg/mL, anti-human IgG Fc-Alexa Fluor647 (1:500), anti-hTcRβ-PerCP (1:30)
Method: as §1, §2, §3

Binder | EC50, luciferase of Jurkat-Luc-NFAT cells; antibody from supernatant [1] [µg/mL] | EC50, luciferase of Jurkat-Luc-NFAT cells; purified antibody [1] [µg/mL] | Kd [2] [nM] | koff [2] [s⁻¹] | kon [2] [M⁻¹ s⁻¹] | Kd [3] [nM] | koff [3] [s⁻¹] | kon [3] [M⁻¹ s⁻¹] | upper left quadrant, percent of cells AF647+ / hTcRβ-PerCP- [7] [%] | upper right quadrant, percent of cells AF647+ / hTcRβ-PerCP+ [7] [%] | EC50, luciferase of Jurkat-Luc-NFAT cells; antibody from supernatant [8] [µg/mL] | Kd [9] [nM] | koff [9] [s⁻¹] | kon [9] [M⁻¹ s⁻¹] | upper left quadrant, percent of cells AF647+ / hTcRβ-PerCP- [10] [%] | upper right quadrant, percent of cells AF647+ / hTcRβ-PerCP+ [10] [%] | upper left quadrant, percent of cells AF647+ / hTcRβ-PerCP- [11] [%] | upper right quadrant, percent of cells AF647+ / hTcRβ-PerCP+ [11] [%] | upper left quadrant, percent of cells AF647+ / hTcRβ-PerCP- [12] [%] | upper right quadrant, percent of cells AF647+ / hTcRβ-PerCP+ [12] [%] | other results
B1 | 0.416 | 0.472 | 1.38 | 8.85e-05 | 63900 | 9.12 | 0.000497 | 54500 | 51.1 | 2.59 | – | – | – | – | – | – | – | – | – | – | upper left quadrant, percent of cells AF647+ / hTcRβ-PerCP- [4]: 14.9%; upper right quadrant, percent of cells AF647+ / hTcRβ-PerCP+ [4]: 74.2%; upper left quadrant, percent of cells AF647+ / hTcRβ-PerCP- [5]: 7.13%; upper right quadrant, percent of cells AF647+ / hTcRβ-PerCP+ [5]: 45.6%; upper left quadrant, percent of cells AF647+ / hTcRβ-PerCP- [6]: 2.8%; upper right quadrant, percent of cells AF647+ / hTcRβ-PerCP+ [6]: 14.5%
B2 | 0.272 | 0.726 | 2.14 | 0.000127 | 59300 | 5.18 | 0.000298 | 57500 | 47 | 2.56 | – | – | – | – | – | – | – | – | – | – | upper left quadrant, percent of cells AF647+ / hTcRβ-PerCP- [4]: 13.5%; upper right quadrant, percent of cells AF647+ / hTcRβ-PerCP+ [4]: 75.8%; upper left quadrant, percent of cells AF647+ / hTcRβ-PerCP- [5]: 10.8%; upper right quadrant, percent of cells AF647+ / hTcRβ-PerCP+ [5]: 57.8%; upper left quadrant, percent of cells AF647+ / hTcRβ-PerCP- [6]: 2.53%; upper right quadrant, percent of cells AF647+ / hTcRβ-PerCP+ [6]: 11.6%
B3 | – | – | – | – | – | – | – | – | 78.8 | 18.3 | > 3.06 | 1.37 | 0.000914 | 665000 | 11 | 61.2 | 7.75 | 65.2 | 11.8 | 55.5 | –
B4 | – | – | – | – | – | – | – | – | 89.5 | 7.53 | > 3.08 | 2.96 | 0.00062 | 209000 | 11.4 | 58.1 | 9.23 | 62 | 10.2 | 57.7 | –
B5 | – | – | – | – | – | – | – | – | 78.5 | 18.3 | 2.4 | 0.809 | 0.000653 | 807000 | 10.2 | 64.4 | 8.51 | 64.1 | 13.1 | 54.1 | –
